B1: LYP tagged with the myc epitope, Arg620 variant (myc-LYPR) [human] / HA-CSK [not stated] (parent complex)
chain 1: MDQREILQKFLDEAQSKKITKEEFANEFLKLKRQSTKYKADKTYPTTVAEKPKNIKKNRYKDILPYDYSRVELSLITSDEDSSYINANFIKGVYGPKAYIATQGPLSTTLLDFWRMIWEYSVLIIVMACMEYEMGKKKCERYWAEPGEMQLEFGPFSVSCEAEKRKSDYIIRTLKVKFNSETRTIYQFHYKNWPDHDVPSSIDPILELIWDVRCYQEDDSVPICIHCSAGCGRTGVICAIDYTWMLLKDGIIPENFSVFSLIREMRTQRPSLVQTQEQYELVYNAVLELFKRQMDVIRDKHSGTESQAKHCIPEKNHTLQADSYSPNLPKSTTKAAKMMNQQRTKMEIKESSSFDFRTSEISAKEELVLHPAKSSTSFDFLELNYSFDKNADTTMKWQTKAFPIVGEPLQKHQSLDLGSLLFEGCSNSKPVNAAGRYFNSKVPITRTKSTPFELIQQRETKEVDSKENFSYLESQPHDSCFVEMQAQKVMHVSSAELNYSLPYDSKHQIRNASNVKHHDSSALGVYSYIPLVENPYFSSWPPSGTSSKMSLDLPEKQDGTVFPSSLLPTSSTSLFSYYNSHDSLSLNSPTNISSLLNQESAVLATAPRIDDEIPPPLPVRTPESFIVVEEAGEFSPNVPKSLSSAVKVKIGTSLEWGGTSEPKKFDDSVILRPSKSVKLRSPKSELHQDRSSPPPPLPERTLESFFLADEDCMQAQSIETYSTSYPDTMENSTSSKQTLKTPGKSFTRSKSLKILRNMKKSICNSCPPNKPAESVQSNNSSSFLNFGFANRFSKPKGPRNPPPTWNI
chain 2: MSAIQAAWPSGTECIAKYNFHGTAEQDLPFCKGDVLTIVAVTKDPNWYKAKNKVGREGIIPANYVQKREGVKAGTKLSLMPWFHGKITREQAERLLYPPETGLFLVRESTNYPGDYTLCVSCDGKVEHYRIMYHASKLSIDEEVYFENLMQLVEHYTSDADGLCTRLIKPKVMEGTVAAQDEFYRSGWALNMKELKLLQTIGKGEFGDVMLGDYRGNKVAVKCIKNDATAQAFLAEASVMTQLRHSNLVQLLGVIVEEKGGLYIVTEYMAKGSLVDYLRSRGRSVLGGDCLLKFSLDVCEAMEYLEGNNFVHRDLAARNVLVSEDNVAKVSDFGLTKEASSTQDTGKLPVKWTAPEALREKKFSTKSDVWSFGILLWEIYSFGRVPYPRIPLKDVVPRVEKGYKMDAPDGCPPAVYEVMKNCWHLDAAMRPSFLQLREQLEHIKTHELHL

The variants in one test derive from B1. Nature of the test: co-immunoprecipitation (IP anti-myc, IB HA), blot densitometry; transfected HEK293 cells; parent: 48.1.
With chain 1 R620W, the response was determined as 18 arbitrary units.
The same measure, in the same setting: to chain 1 P615A, chain 1 P618A, chain 1 P695A belongs 0.77 arbitrary units; to chain 1 R620W, chain 1 P695A, 0.07 arbitrary units.
The same measure, in the same setting: to chain 1 P615A, chain 1 P618A belongs 10.3 arbitrary units.
Same read-out and setting: to chain 1 P695A belongs 23.3 arbitrary units.

Another test covers variants of B1. Kind of test: co-immunoprecipitation (IP anti-myc, IB HA), blot densitometry; transiently transfected HEK293 cells; pEF empty-vector lane 3.67; parent: 57.8.
In the case of chain 1 R620W, the response is 19.5 arbitrary units.
The same measure, in the same setting: to chain 1 I626A, chain 1 V627A belongs 19.1 arbitrary units.

Variants of B1 are the subject of the next test. Kind of test: co-immunoprecipitation (IP anti-myc, IB HA), blot densitometry; HEK293 cells; parent: 64.8.
Regarding chain 1 R620F, the response worked out at 5.2 arbitrary units.
The same measure, in the same setting: to chain 1 R700F belongs 30 arbitrary units; to chain 1 R620F, chain 1 R700F, 0.03 arbitrary units.

The values are drawn from publication PMC3554717 (2013).
